These results are taken from the supplement of paper PMC10567573.

The chains are these.
B1: PHTF1 (parent)
chain: RVKLISNKGTETDNDPSCVHPIIK
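Note: lentivirally expressed fusions sorted by FACS into six bins by GFP to DsRed ratio, PSI derived from sequencing read proportions per bin multiplied by bin number.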

This series covers variants of B1. Description: protein stability index of a GFP-peptide fusion (GPS, HEK-293T) (PSI 1-6); higher = more stable. Conditions: c terminus: a fixed tail appended.
For RVKLISNKGLETDNDPSCVHPIIK, the protein stability index was determined as 3.38.

As to RVKLISNKGCETDNDPSCVHPIIK, the protein stability index was 3.8.

In the case of RVKLISNKGVETDNDPSCVHPIIK, the protein stability index is 3.38.

Regarding RVKLISNKGKETDNDPSCVHPIIK, the protein stability index amounted to 3.95.

As to RVKLISNKGEETDNDPSCVHPIIK, the protein stability index was 4.26.

In the case of RVKLISNKGMETDNDPSCVHPIIK, the protein stability index worked out at 3.98.

Regarding RVKLISNKGNETDNDPSCVHPIIK, the protein stability index is 4.2.

Consider RVKLISNKGRETDNDPSCVHPIIK, for which the protein stability index turned out to be 3.91.

In the case of RVKLISNKGAETDNDPSCVHPIIK, the protein stability index stood at 4.2.

As to RVKLISNKGQETDNDPSCVHPIIK, the protein stability index turned out to be 4.51.

In the case of RVKLISNKGIETDNDPSCVHPIIK, the protein stability index was 3.74.

Consider RVKLISNKGPETDNDPSCVHPIIK, for which the protein stability index stood at 4.29.

Take RVKLISNKGSETDNDPSCVHPIIK: the protein stability index amounted to 3.88.

Take RVKLISNKGYETDNDPSCVHPIIK: the protein stability index was 3.94.

Take RVKLISNKGFETDNDPSCVHPIIK: the protein stability index came out at 3.1.

Regarding RVKLISNKGWETDNDPSCVHPIIK, the protein stability index turned out to be 2.66.

On to RVKLISNKGHETDNDPSCVHPIIK, for which the protein stability index amounted to 4.52.

As for RVKLISNKGGETDNDPSCVHPIIK, the protein stability index is 4.01.

Regarding RCKLISNKGTETDNDPSCVHPIIK, the protein stability index was determined as 4.02.

As to RNKLISNKGTETDNDPSCVHPIIK, the protein stability index is 4.5.

Turning to RLKLISNKGTETDNDPSCVHPIIK, the protein stability index is 4.19.

RTKLISNKGTETDNDPSCVHPIIK: the protein stability index was found to be 4.35.

RFKLISNKGTETDNDPSCVHPIIK: the protein stability index was 3.26.

Turning to RMKLISNKGTETDNDPSCVHPIIK, the protein stability index was 3.97.

Consider RDKLISNKGTETDNDPSCVHPIIK, for which the protein stability index came out at 4.54.

On to RIKLISNKGTETDNDPSCVHPIIK, for which the protein stability index amounted to 4.18.

Take RGKLISNKGTETDNDPSCVHPIIK: the protein stability index is 3.52.

As for RAKLISNKGTETDNDPSCVHPIIK, the protein stability index amounted to 4.41.

As to RSKLISNKGTETDNDPSCVHPIIK, the protein stability index amounted to 4.44.

In the case of RWKLISNKGTETDNDPSCVHPIIK, the protein stability index came to 3.61.

RRKLISNKGTETDNDPSCVHPIIK: the protein stability index turned out to be 4.45.

RQKLISNKGTETDNDPSCVHPIIK: the protein stability index was determined as 4.65.

Regarding REKLISNKGTETDNDPSCVHPIIK, the protein stability index came out at 4.78.

Take RPKLISNKGTETDNDPSCVHPIIK: the protein stability index worked out at 4.68.

In the case of RHKLISNKGTETDNDPSCVHPIIK, the protein stability index is 4.2.

With RYKLISNKGTETDNDPSCVHPIIK, the protein stability index was 3.54.

RKKLISNKGTETDNDPSCVHPIIK: the protein stability index worked out at 4.6.

With RVKLWSNKGTETDNDPSCVHPIIK, the protein stability index is 3.6.

Consider RVKLSSNKGTETDNDPSCVHPIIK, for which the protein stability index was 4.3.

Regarding RVKLCSNKGTETDNDPSCVHPIIK, the protein stability index came to 3.97.

Turning to RVKLMSNKGTETDNDPSCVHPIIK, the protein stability index came out at 4.3.

Take RVKLNSNKGTETDNDPSCVHPIIK: the protein stability index stood at 4.41.

With RVKLVSNKGTETDNDPSCVHPIIK, the protein stability index is 4.

In the case of RVKLFSNKGTETDNDPSCVHPIIK, the protein stability index amounted to 4.02.

For RVKLYSNKGTETDNDPSCVHPIIK, the protein stability index is 3.75.

RVKLTSNKGTETDNDPSCVHPIIK: the protein stability index amounted to 4.25.

As to RVKLESNKGTETDNDPSCVHPIIK, the protein stability index turned out to be 4.63.

Regarding RVKLRSNKGTETDNDPSCVHPIIK, the protein stability index came out at 3.86.

Consider RVKLQSNKGTETDNDPSCVHPIIK, for which the protein stability index was found to be 4.8.

RVKLPSNKGTETDNDPSCVHPIIK: the protein stability index was 4.8.

As to RVKLDSNKGTETDNDPSCVHPIIK, the protein stability index stood at 4.7.

As for RVKLLSNKGTETDNDPSCVHPIIK, the protein stability index is 4.4.

In the case of RVKLASNKGTETDNDPSCVHPIIK, the protein stability index worked out at 4.11.

As to RVKLGSNKGTETDNDPSCVHPIIK, the protein stability index turned out to be 4.09.

Take RVKLHSNKGTETDNDPSCVHPIIK: the protein stability index was 4.3.

For RVKLKSNKGTETDNDPSCVHPIIK, the protein stability index turned out to be 4.01.

For RVKLIDNKGTETDNDPSCVHPIIK, the protein stability index was found to be 4.49.

Turning to RVKLIWNKGTETDNDPSCVHPIIK, the protein stability index was 2.86.

Regarding RVKLICNKGTETDNDPSCVHPIIK, the protein stability index came out at 3.76.

On to RVKLILNKGTETDNDPSCVHPIIK, for which the protein stability index was determined as 2.97.

For the variant RVKLIANKGTETDNDPSCVHPIIK, the protein stability index stood at 4.

As to RVKLIENKGTETDNDPSCVHPIIK, the protein stability index turned out to be 3.85.

In the case of RVKLIMNKGTETDNDPSCVHPIIK, the protein stability index came to 3.14.

RVKLITNKGTETDNDPSCVHPIIK: the protein stability index worked out at 3.95.

On to RVKLIQNKGTETDNDPSCVHPIIK, for which the protein stability index stood at 4.26.

As for RVKLIVNKGTETDNDPSCVHPIIK, the protein stability index is 3.52.

Regarding RVKLIFNKGTETDNDPSCVHPIIK, the protein stability index came to 2.77.

For the variant RVKLIHNKGTETDNDPSCVHPIIK, the protein stability index came out at 4.03.

For the variant RVKLIYNKGTETDNDPSCVHPIIK, the protein stability index worked out at 3.34.

Take RVKLIPNKGTETDNDPSCVHPIIK: the protein stability index came out at 4.17.

As to RVKLINNKGTETDNDPSCVHPIIK, the protein stability index was found to be 4.26.

On to RVKLIRNKGTETDNDPSCVHPIIK, for which the protein stability index came to 3.62.

For the variant RVKLIKNKGTETDNDPSCVHPIIK, the protein stability index was determined as 4.36.

RVKLIINKGTETDNDPSCVHPIIK: the protein stability index came to 3.23.

RVKLIGNKGTETDNDPSCVHPIIK: the protein stability index worked out at 4.38.

RVNLISNKGTETDNDPSCVHPIIK: the protein stability index turned out to be 4.32.

Turning to RVDLISNKGTETDNDPSCVHPIIK, the protein stability index worked out at 4.48.

Take RVTLISNKGTETDNDPSCVHPIIK: the protein stability index amounted to 4.19.

Regarding RVQLISNKGTETDNDPSCVHPIIK, the protein stability index was 4.07.

Turning to RVILISNKGTETDNDPSCVHPIIK, the protein stability index came out at 2.81.

As for RVWLISNKGTETDNDPSCVHPIIK, the protein stability index came out at 2.56.

In the case of RVMLISNKGTETDNDPSCVHPIIK, the protein stability index turned out to be 3.67.

With RVYLISNKGTETDNDPSCVHPIIK, the protein stability index is 2.86.

Regarding RVELISNKGTETDNDPSCVHPIIK, the protein stability index turned out to be 4.64.

With RVALISNKGTETDNDPSCVHPIIK, the protein stability index came out at 4.38.

On to RVSLISNKGTETDNDPSCVHPIIK, for which the protein stability index amounted to 4.33.

In the case of RVLLISNKGTETDNDPSCVHPIIK, the protein stability index is 2.72.

RVRLISNKGTETDNDPSCVHPIIK: the protein stability index came out at 3.92.

For RVFLISNKGTETDNDPSCVHPIIK, the protein stability index came out at 3.29.

For the variant RVGLISNKGTETDNDPSCVHPIIK, the protein stability index worked out at 4.31.

RVPLISNKGTETDNDPSCVHPIIK: the protein stability index was 4.55.

Turning to RVCLISNKGTETDNDPSCVHPIIK, the protein stability index came out at 3.52.

Regarding RVVLISNKGTETDNDPSCVHPIIK, the protein stability index amounted to 3.29.

In the case of RVHLISNKGTETDNDPSCVHPIIK, the protein stability index turned out to be 3.83.
